Laboratory results taken from patent publication CN115521375A (INST PASTEUR SHANGHAI CAS, dated 2022).

How the values were obtained:
SARS-CoV-2原型株(Wt)假病毒的S蛋白 = SARS-CoV-2原型株(Wt)假病毒的S蛋白 (SARS-CoV-2, UniProt P0DTC2 14-1273); test: cell-based or functional assay
SARS-CoV-2原型株RBD蛋白 [1] = target: T1, SARS-CoV-2原型株RBD蛋白 (SARS-CoV-2, UniProt P0DTC2 320-550); test: BLI, prototype RBD on the sensor, antibody in solution
SARS-CoV-2原型株RBD蛋白 [2] = target: T1, SARS-CoV-2原型株RBD蛋白; test: ELISA, coated antigen
SARS-CoV-2原型株NTD蛋白 = target: T2, SARS-CoV-2原型株NTD蛋白 (SARS-CoV-2, UniProt P0DTC2 16-294); test: ELISA, coated antigen
T2 construct: range 16-294

B1: 单抗5G2 (antibody)
heavy: EVLLQQSGPELVKPGASVKIPCKASGYTFTDYNMDWVKQSHGKSLEWIGDINPNSGFIIYNQKFKGKASLTVDKSSSTAYMELRSLTSEDTAVYYCAREGYGNNFDYWGQGTTLSVSSAKTTPPSVYPLAPGCGDTTGSSVTLGCLVKGYFPESVTVTWNSGSLSSSVHTFPALLQSGLYTMSSSVTVPSSTWPSQTVTCSVAHPASSTTVDKKLEPSGPISTINPCPPCKECHKCPAPNLEGGPSVFIFPPNIKDVLMISLTPKVTCVVVDVSEDDPDVQISWFVNNVEVHTAQTQTHREDYNSTIRVVSTLPIQHQDWMSGKEFKCKVNNKDLPSPIERTISKIKGLVRAPQVYILPPPAEQLSRKDVSLTCLVVGFNPGDISVEWTSNGHTEENYKDTAPVLDSDGSYFIYSKLNMKTSKWEKTDSFSCNVRHEGLKNYYLKKTISRSPGK
light: DILLTQSPTILSVSPGERVSFSCRASQSIGTSIHWYQQRTKGSPRLLIKYASESISGIPSRFSGSGSGTDFTLSINSVESEDIGDYYCQQSYSWPTTFGAGTKLELK
notes: also called 抗体5G2
- 半数抑制浓度(IC50), 假病毒中和试验 (SARS-CoV-2原型株(Wt)假病毒的S蛋白): 0.293 mg/L
- Kd (SARS-CoV-2原型株RBD蛋白 [1]): < 1 pM

B2: 单抗3H3 (antibody, V domains shown)
VH: QVQLQQPGAELVRPGASVKLSCKASGYSFTRFWMNWVKQRPGQGLEWIGMIHPSDSETRLNQKFKDKATLTVDKSSTTAYMQLSSPTSEDSAVYYCARKDYDYDAWFAYWGQGTLVTVSA
VL: DIVLTQSPASLAVSLGQRATISCRASKSVSASVYSYMHWYQQKPGQPPKLLIYLASSLESGVPARFSGSGSGTDFTLNIHPVEEEDAATYYCHHSRELPPAFGGGTKLEIKR
notes: also called 抗体3H3
- binding result (SARS-CoV-2原型株RBD蛋白 [2]): no binding
- binding result (SARS-CoV-2原型株NTD蛋白): no binding
- 中和IC50, 假病毒中和试验 (SARS-CoV-2原型株(Wt)假病毒的S蛋白): 0.083 µg/mL
